Test results as given in patent US7094599.

Target: MHC class II antigen on the Raji B cell line
Test: cell-based or functional assay

CD4:ζ (receptor)
percent cytolysis of Raji (MHC class II+) cells by CTL expressing CD4:ζ: 5%
